T1: LAG-3 extracellular segment recombinant protein with polyhistidine tag (LAG3-His) (UniProt P18627 23-450, limits assumed)
T1 construct: extracellular domain
T1 sequence (looked up): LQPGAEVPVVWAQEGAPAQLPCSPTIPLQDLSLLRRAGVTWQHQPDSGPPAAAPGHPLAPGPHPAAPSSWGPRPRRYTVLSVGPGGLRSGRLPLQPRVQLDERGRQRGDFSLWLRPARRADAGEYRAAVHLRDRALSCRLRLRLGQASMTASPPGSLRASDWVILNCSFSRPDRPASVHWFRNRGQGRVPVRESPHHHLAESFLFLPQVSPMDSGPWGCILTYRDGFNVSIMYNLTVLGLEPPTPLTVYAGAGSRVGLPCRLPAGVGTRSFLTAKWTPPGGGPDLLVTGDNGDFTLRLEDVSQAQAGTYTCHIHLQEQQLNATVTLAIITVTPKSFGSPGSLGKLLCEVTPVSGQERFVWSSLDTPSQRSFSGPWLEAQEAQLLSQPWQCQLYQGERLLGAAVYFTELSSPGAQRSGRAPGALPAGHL

B1: 609-302-134-IgG4, hexavalent trispecific antibody against PD-1, HER-2 and LAG-3 (antibody)
heavy: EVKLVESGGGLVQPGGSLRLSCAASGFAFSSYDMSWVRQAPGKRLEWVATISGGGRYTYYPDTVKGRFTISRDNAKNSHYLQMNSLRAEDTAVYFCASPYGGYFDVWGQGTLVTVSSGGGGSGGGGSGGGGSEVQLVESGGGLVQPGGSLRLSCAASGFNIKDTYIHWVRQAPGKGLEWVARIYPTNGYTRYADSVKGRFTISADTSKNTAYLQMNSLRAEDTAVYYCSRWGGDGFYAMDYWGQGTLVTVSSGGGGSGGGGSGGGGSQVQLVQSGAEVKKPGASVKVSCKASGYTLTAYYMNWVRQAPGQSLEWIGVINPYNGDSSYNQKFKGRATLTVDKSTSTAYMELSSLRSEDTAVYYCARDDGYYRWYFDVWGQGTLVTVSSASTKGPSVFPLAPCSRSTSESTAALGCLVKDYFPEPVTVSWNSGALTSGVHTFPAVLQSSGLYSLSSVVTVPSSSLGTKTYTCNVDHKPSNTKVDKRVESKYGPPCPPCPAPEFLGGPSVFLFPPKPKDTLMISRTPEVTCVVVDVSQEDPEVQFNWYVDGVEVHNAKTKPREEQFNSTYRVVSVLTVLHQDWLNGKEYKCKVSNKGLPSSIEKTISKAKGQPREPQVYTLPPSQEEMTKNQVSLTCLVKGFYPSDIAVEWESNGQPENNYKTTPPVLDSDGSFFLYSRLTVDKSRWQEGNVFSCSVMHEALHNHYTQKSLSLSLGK
light 1: not shown
light 2: DIQMTQSPSSLSASVGDRVTITCRASQDIGSRLNWLQQKPGKSIKRLIYATSSLESGVPSRFSGSRSGSDYTLTISSLQPEDFATYYCLQSGSSPPTFGQGTKVEIKRTVAAPSVFIFPPSDEQLKSGTASVVCLLNNFYPREAKVQWKVDNALQSGNSQESVTEQDSKDSTYSLSSTLTLSKADYEKHKVYACEVTHQGLSSPVTKSFNRGEC
B2: 609-302-(105CC)-134-IgG4, hexavalent trispecific antibody against PD-1, HER-2 and LAG-3 (antibody)
heavy: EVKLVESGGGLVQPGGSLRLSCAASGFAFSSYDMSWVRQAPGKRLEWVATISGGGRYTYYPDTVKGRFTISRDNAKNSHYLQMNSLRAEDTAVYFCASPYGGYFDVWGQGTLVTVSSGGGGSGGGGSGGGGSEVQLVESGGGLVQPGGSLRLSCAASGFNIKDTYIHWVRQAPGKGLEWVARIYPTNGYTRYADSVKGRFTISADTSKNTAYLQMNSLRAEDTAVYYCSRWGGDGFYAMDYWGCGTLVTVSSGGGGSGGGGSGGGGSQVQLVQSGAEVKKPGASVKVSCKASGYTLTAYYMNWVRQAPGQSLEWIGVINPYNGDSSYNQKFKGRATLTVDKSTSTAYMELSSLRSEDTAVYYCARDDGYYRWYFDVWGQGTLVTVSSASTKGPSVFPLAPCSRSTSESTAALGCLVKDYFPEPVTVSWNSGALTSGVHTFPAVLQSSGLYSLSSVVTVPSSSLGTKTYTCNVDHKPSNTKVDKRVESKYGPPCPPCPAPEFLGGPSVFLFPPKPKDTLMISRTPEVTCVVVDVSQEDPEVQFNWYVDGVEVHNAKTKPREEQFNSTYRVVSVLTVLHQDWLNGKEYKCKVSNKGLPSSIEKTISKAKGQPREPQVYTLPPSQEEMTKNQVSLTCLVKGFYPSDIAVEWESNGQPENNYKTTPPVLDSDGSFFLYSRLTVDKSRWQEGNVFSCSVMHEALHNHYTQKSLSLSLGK
light 1: not shown
light 2: B1 light 2
B3: 609-302-(44CC)-134-IgG4, hexavalent trispecific antibody against PD-1, HER-2 and LAG-3 (antibody)
heavy: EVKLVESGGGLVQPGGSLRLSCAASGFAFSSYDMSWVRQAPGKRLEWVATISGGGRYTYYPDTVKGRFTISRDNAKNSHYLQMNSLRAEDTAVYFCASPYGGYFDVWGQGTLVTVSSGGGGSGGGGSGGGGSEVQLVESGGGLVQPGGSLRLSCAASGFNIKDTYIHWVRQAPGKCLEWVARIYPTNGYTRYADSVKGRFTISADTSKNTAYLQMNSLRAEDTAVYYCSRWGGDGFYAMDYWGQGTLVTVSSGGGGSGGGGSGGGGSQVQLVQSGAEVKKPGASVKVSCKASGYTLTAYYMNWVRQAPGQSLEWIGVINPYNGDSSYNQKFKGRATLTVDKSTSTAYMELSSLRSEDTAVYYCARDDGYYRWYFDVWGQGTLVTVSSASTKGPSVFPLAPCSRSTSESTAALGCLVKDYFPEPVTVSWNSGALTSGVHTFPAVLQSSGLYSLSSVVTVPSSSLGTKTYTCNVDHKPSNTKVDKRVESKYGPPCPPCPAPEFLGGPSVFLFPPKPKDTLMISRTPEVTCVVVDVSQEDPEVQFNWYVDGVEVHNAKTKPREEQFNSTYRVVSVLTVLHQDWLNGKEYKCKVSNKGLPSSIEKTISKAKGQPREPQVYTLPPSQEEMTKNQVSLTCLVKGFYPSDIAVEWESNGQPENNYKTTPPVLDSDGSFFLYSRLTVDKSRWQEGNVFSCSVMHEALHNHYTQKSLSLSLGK
light 1: not shown
light 2: B1 light 2
B4: 134-IgG4 (134 Hu IgG4-C91S), humanized monoclonal antibody against human LAG-3 (antibody, V domains shown)
VH: QVQLVQSGAEVKKPGASVKVSCKASGYTLTAYYMNWVRQAPGQSLEWIGVINPYNGDSSYNQKFKGRATLTVDKSTSTAYMELSSLRSEDTAVYYCARDDGYYRWYFDVWGQGTLVTVSS
VL: DIQMTQSPSSLSASVGDRVTITCRASQDIGSRLNWLQQKPGKSIKRLIYATSSLESGVPSRFSGSRSGSDYTLTISSLQPEDFATYYCLQSGSSPPTFGQGTKVEIKR
notes: also called Anti-LAG-3 antibody

What follows are binders tested against T1, LAG-3 extracellular segment recombinant … (assay: ELISA, LAG3-His coated at 10 ng/well, HRP anti-human Fc detection).
Method: (§1) The ELISA detection method used in the following embodiments is described as follows: the corresponding recombinant protein is coated on the microplate, and the microplate is closed with PBST containing 1% bovine serum albumin (PBST is a phosphate buffer containing 0.05% Tween-20). The antibody to be tested was sequentially diluted and then transferred to the above recombinant protein-coated microplates, incubated at room temperature for half an hour and then washed, appropriately diluted HRP (Horseradish Peroxidase)-labeled goat anti-human antibody (Fc specific, purchased from Sigma) was incubated at room temperature for half an hour and then washed, and 100 μl of TMB (3,3′,5,5′-Tetramethylbenzidine) was added to each well.
(§2) Hereby, HER2 extracellular segment recombinant protein (referred to as HER2-His, purchased from Sino Biological Inc.), PD-1 extracellular segment recombinant protein (referred to as PD1-His, purchased from Sino Biological Inc.), and LAG-3 extracellular segment recombinant protein (referred to as LAG3-His, purchased from ACROBiosystems) with polyhistidine tags were coated on microplates at concentrations of 20 ng/well, 20 ng/well, and 10 ng/well, respectively.

EC50 [pM] | Binder
260 | B1
286 | B2
226 | B3
122 | B4

What follows are binders tested against T2, PD-1 extracellular segment recombinant protein with polyhistidine tag (PD1-His) (UniProt Q15116 25-170, limits assumed) (assay: ELISA, PD1-His coated at 20 ng/well, HRP anti-human Fc detection).
T2 construct: extracellular domain
T2 sequence (Q15116 25-170 limits assumed): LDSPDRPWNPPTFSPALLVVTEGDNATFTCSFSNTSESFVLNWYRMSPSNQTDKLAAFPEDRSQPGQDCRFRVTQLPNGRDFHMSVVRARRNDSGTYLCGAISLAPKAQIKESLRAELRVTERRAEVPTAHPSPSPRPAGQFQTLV
Method: as §1, §2

EC50 [pM] | Binder
125 | B1
104 | B2
91.1 | B3

The binders below were run against T3, HER2 extracellular segment recombinant protein with polyhistidine tag (HER2-His) (UniProt P04626 23-652, limits assumed) (assay: ELISA, HER2-His coated at 20 ng/well, HRP anti-human Fc detection).
T3 construct: extracellular domain
Method: as §1, §2

EC50 [pM] | Binder
420 | B2
355 | B3

From patent US20240254232A1 (SUNSHINE GUOJIAN PHARMACEUTICAL SHANGHAI, published 2024)
